Each sequence was assayed on K4 kissing-loop RNA reporter (assay: apparent KD of K4 kissing-loop reporter; higher = weaker reporter binding). Details: Eterna round: R107; input ligand: theophylline 20 uM.
Description: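 RNA-MaP round R107: designed RNA switches with theophylline, tryptophan, arginine or FMN aptamers are transcribed on-chip within common flanks. They are titrated with a labelled K4 kissing-loop RNA reporter in RNA-MaP buffer (100 mM Tris pH 7.5, 80 mM KCl, 4 mM MgCl2), without ligand or with the indicated ligand. Median apparent KD per design.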
For “AAUAGCCGUACUAGUGAUGUUAGUGUGGAUACCAGUUCAUGGACGAACCCUUGGCAGCCAUCAAAUAUAUAUGAGGGAUCAUCAC [theeternabot_exclusion_KL_Theo_A_47]”, the “apparent KD of K4 kissing-loop reporter” value was 410 nM.
For “CAUACUUGCCGACCGCGGCACGCUAGUGAUACCAGUAACACCGUCUACCCUUGGCAGCACGAGAGAGUGAUGUUUUCAGCAGCCA [theeternabot_sameState_KL_Theo_A_3]”, the “apparent KD of K4 kissing-loop reporter” value was 736 nM.
In the case of “UUUGUAUCGGGAAGGAGCGUGAAUGAUAAUGGAUAUAGUGAUGUUAUAUAUAAGAACGAAUCACAGGUAGGUCGCCCGGAUGACU [SSArgB.P]”, the “apparent KD of K4 kissing-loop reporter” value is reported as 586 nM.
With “UGACAUUGCUCAGAUACCAGACUUGAGGAUCACCCAGGUGCCAAAUACGUACAAAUAAAAGUCCCUUGGCAGCUGAGCAAUGUCU [TheoBX 12]” the “apparent KD of K4 kissing-loop reporter” value was 113 nM.
“GCCGUAGAUUGAAGGAGCGAGGCUAAUUAAAGACCGAGUGAUGUUCGGGAGCGUGAAACUCCUCAGGUAGGUCGCAAUCUACGGC” was tested, and the “apparent KD of K4 kissing-loop reporter” value was 186 nM.
“GGGAGUAGUGCGGCCGCCACUGUGAAAGAAGAAGAAUAUAGUGAUGUUAUAUAGGAAGGGAAGAAUAGGACCGGGCAUUAGAUUU [SSTRyptB.aA]” was tested, and the “apparent KD of K4 kissing-loop reporter” value was 190 nM.
For “CAAUGAGUAUAAGAUGAUAUCAUCACAGAAGGAGCGAGUGAUAACUCAGGUAGGUCGCUGAAUUUGUCGAGUGAUGUUCGAUAGA [whbob_SS_Arginine_A_sa119]”, the “apparent KD of K4 kissing-loop reporter” value was 188 nM.
In the case of “CGGACUGCAGGAAGGAGCGGCGGACGGAGUGAUGUUCCGGGUAGUGAUGUUACCAAACACCGCCAGGUAGGUCGCCUGUUGCUCC [Same State Arginine B GF8]”, the “apparent KD of K4 kissing-loop reporter” value is reported as 146 nM.
“AUUUUUUUAUCAGGAUAUUAGUGAUGGUUUUUUUUGUUAGUGAUGUUGAUAUUUGUUUUAUGUAUUUAAGAAGGGAUUGAGAUGU [tzzsullin]” was tested, and the “apparent KD of K4 kissing-loop reporter” value was 64.4 nM.
With “GCGCGUCAUGUCAGCGGUGACACUGUCGAUACCAGCGCCGAAAGGCGCCCUUGGCAGCGACGUGCUGGAGUGAUGUUCCAGCGUC [#2 Exclusion - Theophylline A Attempt #24 (HarryS)]” the “apparent KD of K4 kissing-loop reporter” value was 148 nM.
“UUUCUUUUCUUUUGCGAUCCUAUCCCUUAUAAGGAUAUCUAGAAAUAGAGAAGGUAUGCAGUGAUGUUGCUUGGGAUAGGAUCGC” was tested, and the “apparent KD of K4 kissing-loop reporter” value was 277 nM.
In the case of “GAAGGUCAAAGACCUUCGUGCACACCUGAUACCAGUCGCGAAAGCGACCCUUGGCAGCAGGGUAGUGAUGUUGCCAGUGCACAAA [#14 K4 Theophylline A Same State]”, the “apparent KD of K4 kissing-loop reporter” value is reported as 595 nM.
For “UUCAGGUGUUCGGCCGCCACUCCAGUGAUGUUGGAGUGGCUUCACAAGGACCAGGACAAUGUAAGGAGGACCGGGAAUAUCUCAG [Vequleat]”, the “apparent KD of K4 kissing-loop reporter” value was 128 nM.
In the case of “GUAGCUAAAGAAGGAUAUCGGAUCCAAAUCAAGCAGUGAUGUUGCGUGAAGAUCGGCUCCAUGCCGCGAGAAGGUCUUUUCUGUU [theeternabot_sameState_KL_FMN_B_18]”, the “apparent KD of K4 kissing-loop reporter” value is reported as 284 nM.
For “AAUACUAUCAGAAGGAGCGUGGAAUAUUCAUCUGUAUCUAAUACGAGUGAUGUUCGUAAUUCACAGGUAGGUCGCUGAUUAAUAA [whbob_Ex_Arginine_B_2th157]”, the “apparent KD of K4 kissing-loop reporter” value was 266 nM.
With “UGACUGGACUGAAGGAGCGAGCGAGACAAAGUCUCGAAUUUUCAGUGAUGUUGAUAUAUAACUCAGGUAGGUCGCAGUCUAGUCU [ArgBS 8 #SwitchBubble #StaticStem]” the “apparent KD of K4 kissing-loop reporter” value was 438 nM.
For “UUAGCAGUAUACUGCAAGACCUAUACUGAUACCAGAGUCAAUUGACUCCCUUGGCAGCGGAUCGAGUGAUGUUCGUAAGGUCAUU [AK4.2 SS Theophylline A]”, the “apparent KD of K4 kissing-loop reporter” value was 792 nM.
In the case of “GGUGCGGGCUCGGCCGCCACUCCCGCGGGUCGUAAGGUCCGCUACUGAGUGAUGUUCGGUUGGAGGAGGACCGGGAGCCCGUGCC [#2 Exclusion - Tryptophan B Attempt #19 (HarryS)]”, the “apparent KD of K4 kissing-loop reporter” value is reported as 85.3 nM.
For “AACCAGCUUACUGUAAGCUGGUUGCUGGAUACCAGCUCGGAAACGAGCCCUUGGCAGCCAGAACUUGCAGUGAUGUUGCAAGUAA [Design11]”, the “apparent KD of K4 kissing-loop reporter” value was 120 nM.
For “GUUGGGUGGGUUAAAGAAUUUGUCUGACAACGAGGACCGGUACGGCCGCCACUCGAGUGAUGUUCGAGAAGAAAGAAAGAAAGAA”, the “apparent KD of K4 kissing-loop reporter” value was 146 nM.
“AACGGCCAGUCGGCCGCCACUCCAAGCAGUGAUGUUGCUAAGUUUCUAAAAGAGUGAUGUUCUUAGAGGACCGGGACUGAUGUAA [Exclusion Tryptophan B Gf 6]” was tested, and the “apparent KD of K4 kissing-loop reporter” value was 161 nM.
For “AAUUUUAAUAAUAAAUAAUAAAUAAAUGAUACCAGUAUUUUUUUUUACCCUUGGCAGCAUAUAUAAGGGCAGUGAUGUUGCCAAA [Same State - Theophylline A]”, the “apparent KD of K4 kissing-loop reporter” value was 111 nM.
“AGUGAUAUAUGAGGAUAUGGGUUUGUUAAUGAGUUAGUUUUAGUGUUGUUUGGUUAGUGAUGUUAUUUAGAAGGCGUGAGUGAUG [vkkjkjmullin]” was tested, and the “apparent KD of K4 kissing-loop reporter” value was 140 nM.
In the case of “UAUGGAGUGAUGUUCCGUAUGACUGUCGAUACCAGCCUGUGCCUUGGCCCUUGGCAGCGAAAAGCAUCGGCUAAUGUCGCGUCAU [Onaraed]”, the “apparent KD of K4 kissing-loop reporter” value is reported as 221 nM.
In the case of “UCAAGAGAACUUAAAUUUGAUCAACGCUCGCGAGGACCGGUACGGCCGCCACUCGACCGUUAGUGCCUCAUCCAGUGAUGUUGGG [theeternabot_sameState_KL_Trp_A_6]”, the “apparent KD of K4 kissing-loop reporter” value is reported as 508 nM.
“AUCGUUGUCUGAGGAUAUCGAUUAACUGUAGUGAUGUUACAGAAAAUUCAUAUAAUAUUUUCUAUUCGAGAAGGCAGACUACGUA [JR_ExcFMNB_Sub017]” was tested, and the “apparent KD of K4 kissing-loop reporter” value was 139 nM.
For “AAGAGCUAGGCGGCCGCCACUAGAUGUGAACACAUACAAGCCAGUGAUGUUGGUAUGAUGGACAGUAGGACCGGGCCUAGCUGAA [Exclusion - Tryptophan B (Freestyle 9)]”, the “apparent KD of K4 kissing-loop reporter” value was 368 nM.
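Also: bound reporter read as fluorescence of individual clusters on recovered sequencing chips by microscopy, with normalized cluster intensities fitted with a binding model.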
